Experimental data published in article PMC5652782.

Target: eIF4E (UniProt P63074)
Assay: anti-eIF4E IP, anti-histidine blot
Conditions: reference: wild type Hsp27; sites S15,S78,S82

Hsp27 (from UniProt P04792) 3A (S15A/S78A/S82A)
binding against the reference: weaker
